Experimental data taken from US20240158494A1 (Biogen, published 2024).
Read-outs that look alike come from different tables or passages of the source.

Assays:
[1] = biological target: T1, human transferrin receptor 1 (TfR1), full length, expressed on cells (human, UniProt P02786 1-760); test: FACS on Ba/F3 cells, Fab supernatant
T1 construct: also called human TfR1; huTfR

[2] = biological target: T2, cynomolgus monkey transferrin receptor 1 (TfR1), full length, expressed on cells (cynomolgus monkey, UniProt Q5RDH6 1-760 (Pongo abelii entry)); test: FACS on Ba/F3 cells, Fab supernatant
T2 construct: also called cyno TfR1; cyTfR

[3] = biological target: T1, human transferrin receptor 1 (TfR1), …; test: FACS on Ba/F3 cells, Fab supernatant; remark: listed apart in the source
[4] = biological target: T2, cynomolgus monkey transferrin receptor …; test: FACS on Ba/F3 cells, Fab supernatant; remark: listed apart in the source
[5] = biological target: T3, recombinant human TfR1 extracellular domain, His-tagged (human, UniProt P02786 89-760); test: SPR, TfR1 ECD-His captured, Fab injected, 1:1 fit
T3 construct: also called Human TfR1 ECD; human TfR1 ECD-His

[6] = biological target: T4, recombinant cynomolgus monkey TfR1 extracellular domain, His-tagged (cynomolgus monkey, UniProt Q5RDH6 87-760 (Pongo abelii entry)); test: SPR, TfR1 ECD-His captured, Fab injected, 1:1 fit
T4 construct: also called Cyno TfR1 ECD; cyno TfR1 ECD-His

Row | EC50 [1] [nM] | EC50 [2] [nM] | EC50 [3] [nM] | EC50 [4] [nM] | further results | Binder
1 | 4.9 | 2.2 |  |  |  | TfRANTIBODY-B HC-H4C/LC-L2 (C90V) hIgG1Fab′(1C) (Fab, V domains shown, also called ANTIBODY-B H4C/L2(C90V); H4C (C90V)/L2) VH: QSLVESGGGVVQPGRSLRLSCKASGFSFSNSYWICWVRQAPGKGLEWVGCINTDADSTNYASWARGRFTISKTSSTTVYLQMNSLRAEDTAVYYCARQNNVFDPGYNLWGPGTLVTVSS VL: ELVLTQSPSTLSASVGDRVTITCRASQNIGSNLAWYQQKPGKAPKLLIYDASKLESGVPSRFSGSGSGTEFTLTISSLQPDDFATYYCQVTVRGGAYGNAFGGGTKVEIKR
2 | 16.8 | 6.2 |  |  |  | TfRANTIBODY-B HC-H3C/LC-L2 (C90S) hIgG1Fab′(1C) (Fab, V domains shown, also called ANTIBODY-B H3C/L2(C90S)) VH: QSLVESGGGVVQPGRSLRLSCAASGFSFSNSYWICWVRQAPGKGLEWVGCINTDADSTNYASWARGRFTISKDNSKNTLYLQMNSLRAEDTAVYYCARQNNVFDPGYNLWGQGTLVTVSS VL: ELVLTQSPSTLSASVGDRVTITCRASQNIGSNLAWYQQKPGKAPKLLIYDASKLESGVPSRFSGSGSGTEFTLTISSLQPDDFATYYCQSTVRGGAYGNAFGGGTKVEIKR
3 | 10.7 | 2.9 |  |  |  | TfRANTIBODY-B HC-H1C/LC-L2 (C90V) hIgG1Fab′(1C) (Fab, V domains shown, also called ANTIBODY-B H1C/L2(C90V)) VH: QSLVESGGGVVQPGRSLRLSCAASGFSFSNSYWICWVRQAPGKGLEWVGCINTDADSTNYADSVKGRFTISKDNSKNTVYLQMNSLRAEDTAVYYCARQNNVFDPGYNLWGQGTLVTVSS VL: ELVLTQSPSTLSASVGDRVTITCRASQNIGSNLAWYQQKPGKAPKLLIYDASKLESGVPSRFSGSGSGTEFTLTISSLQPDDFATYYCQVTVRGGAYGNAFGGGTKVEIKR
4 |  |  | 18 | > 85 |  | TfR1 ANTIBODY-A HC-H0 hIgG1 Fab′(1C)/LC-L0 hKappa (Fab, V domains shown, also called ANTIBODY-A H0/L0) VH: EVQLVESGGGLVQPGGSLRLSCAASGIDFSSSGYMAWVRQAPGKGLEWVGAIYTYSSNTYYAASVKGRFTISRDDSKNSLYLQMNSLKTEDTAVYYCARGTYGYTGYTYTMGYFSLWGQGTLVTVSS VL: DIQMTQSPSTLSASVGDRVTITCQASQNINSYLAWYQQKPGKAPKLLIYRASSLESGVPSRFSGSGSGTEFTLTISSLQPDDFATYYCQSYYYSGSSNYNAFGGGTKVEIKR
5 |  |  | ~19 | > 107 |  | TfR1 ANTIBODY-A HC-H0 hIgG1 Fab′(1C)/LC-L1 hKappa (Fab, V domains shown, also called ANTIBODY-A H0/L1) VH: EVQLVESGGGLVQPGGSLRLSCAASGIDFSSSGYMAWVRQAPGKGLEWVGAIYTYSSNTYYAASVKGRFTISRDDSKNSLYLQMNSLKTEDTAVYYCARGTYGYTGYTYTMGYFSLWGQGTLVTVSS VL: DIQMTQSPSTLSASVGDRVTITCQASQNINSYLAWYQQKPGKAPKLLIYRASTLASGVPSRFSGSGSGTEFTLTISSLQPDDFATYYCQSYYYSGSSNYNAFGGGTKVEIKR
6 |  |  | 3.6 | ~26 |  | TfR1 ANTIBODY-A HC-H1C hIgG1 Fab′(1C)/LC-L1 hKappa (Fab, V domains shown, also called ANTIBODY-A H1C/L1) VH: QSLVESGGGLVQPGGSLRLSCAASGIDFSSSGYMCWVRQAPGKGLEWVGCIYTYSSNTYYAASVKGRFTISRDDSKNSLYLQMNSLKTEDTAVYYCARGTYGYTGYTYTMGYFSLWGQGTLVTVSS VL: DIQMTQSPSTLSASVGDRVTITCQASQNINSYLAWYQQKPGKAPKLLIYRASTLASGVPSRFSGSGSGTEFTLTISSLQPDDFATYYCQSYYYSGSSNYNAFGGGTKVEIKR
7 |  |  | ~30 | > 162 |  | TfR1 ANTIBODY-A HC-H1 hIgG1 Fab′(1C)/LC-L1 hKappa (Fab, V domains shown, also called ANTIBODY-A H1/L1) VH: QSLVESGGGLVQPGGSLRLSCAASGIDFSSSGYMAWVRQAPGKGLEWVGAIYTYSSNTYYAASVKGRFTISRDDSKNSLYLQMNSLKTEDTAVYYCARGTYGYTGYTYTMGYFSLWGQGTLVTVSS VL: DIQMTQSPSTLSASVGDRVTITCQASQNINSYLAWYQQKPGKAPKLLIYRASTLASGVPSRFSGSGSGTEFTLTISSLQPDDFATYYCQSYYYSGSSNYNAFGGGTKVEIKR
8 |  |  | 1.6 | 3.3 | Kd [5]: 1.6 nM; koff [5]: 0.00148 s⁻¹; kon [5]: 931000 M⁻¹ s⁻¹; Kd [6]: 6.2 nM; koff [6]: 0.0134 s⁻¹; kon [6]: 2.16e+06 M⁻¹ s⁻¹ | TfR1 ANTIBODY-A HC-H4C hIgG1 Fab′(1C)/LC-L2 hKappa (Fab, V domains shown, also called ANTIBODY-A H4C/L2) VH: QSLVESGGGLVQPGGSLRLSCKASGIDFSSSGYMCWVRQAPGKGLEWVGCIYTYSSNTYYASWAKGRFTISKTSSTTVYLQMNSLKTEDTAVYYCARGTYGYTGYTYTMGYFSLWGPGTLVTVSS VL: ELDMTQSPSTLSASVGDRVTITCQASQNINSYLAWYQQKPGKAPKLLIYRASTLASGVPSRFSGSGSGTEFTLTISSLQPDDFATYYCQSYYYSGSSNYNAFGGGTKVEIKR
9 |  |  | 4.4 | > 36 |  | TfR1 ANTIBODY-A HC-H2 hIgG1 Fab′(1C)/LC-L1 hKappa (Fab, V domains shown, heavy chain derived; also called ANTIBODY-A H2/L1) VH: QSLVESGGGLVQPGGSLRLSCAASGIDFSSSGYMAWVRQAPGKGLEWVGAIYTYSSNTYYAASVKGRFTISKTSSTTVYLQMNSLKTEDTAVYYCARGTYGYTGYTYTMGYFSLWGQGTLVTVSS VL: DIQMTQSPSTLSASVGDRVTITCQASQNINSYLAWYQQKPGKAPKLLIYRASTLASGVPSRFSGSGSGTEFTLTISSLQPDDFATYYCQSYYYSGSSNYNAFGGGTKVEIKR
